# Patent publication US20180127503A1 (EUREKA THERAPEUTICS, published 2018)
# What was measured:
# [1] = target: T1, human ROR2 expressed on the cell surface (human, UniProt Q01974 34-943); experiment: flow cytometry, H345 cells (SCLC); design: unit not given here
# T1 construct: Endogenous ROR2 of human tumour cell lines; also called cell surface ROR2; ROR2 on tumour cell lines
# Description: (§1) Human tumour cell lines were authenticated using short tandem repeat (STR) analysis. They were cultured in RPMI1640 (Cellgro) supplemented with 10% fetal bovine serum (FBS, Life Technologies) at 37° C. in a 5% CO₂ humidified incubator. They were harvested, washed in PBS and reacted with ROR2-IgG at 1 ug/10⁶ tumour cells on ice for an hour. #901-IgG was used as a negative control at the same dose. After washing, a secondary PE-conjugated goat anti-human IgG, Fcγ fragment specific (1:100, Jackson ImmunoResearch) was added for another 30 min incubation. Staining was analyzed on a FACSCalibur (BD Biosciences). ROR2 (full length) antibody binding towards multiple cancer cell lines were compared with Rituxan and Herceptin antibodies. The cancer cell lines were derived from breast cancer, colorectal cancer, mesothelioma, hepatocellular carcinoma, ovarian cancer, osteosarcoma, neuroblastoma, etc. ROR2 #90 antibody could recognize most of the tumour cells tested, and in some cases, the binding intensity was higher than Herceptin (see Tables 8 to 10).
# [2] = target: T1, human ROR2 expressed on the cell surface; experiment: flow cytometry, HEP G2 cells (HCC); design: unit not given here
# Description: as §1
# [3] = target: T1, human ROR2 expressed on the cell surface; experiment: flow cytometry, SKHEP-1 cells (HCC); design: unit not given here
# Description: as §1
# [4] = target: T1, human ROR2 expressed on the cell surface; experiment: flow cytometry, COLO 205 cells (CRC); design: unit not given here
# Description: as §1
# [5] = target: T1, human ROR2 expressed on the cell surface; experiment: flow cytometry, TC71 cells (EW/PNET); design: unit not given here
# Description: as §1
# [6] = target: T1, human ROR2 expressed on the cell surface; experiment: flow cytometry, OCM1 cells (melanoma); design: unit not given here
# Description: as §1
# [7] = target: T1, human ROR2 expressed on the cell surface; experiment: flow cytometry, MCF7 cells (breast CA); design: unit not given here
# Description: as §1
# [8] = target: T1, human ROR2 expressed on the cell surface; experiment: flow cytometry, CHP100 cells (EW/PNET); design: unit not given here
# Description: as §1
# [9] = target: T1, human ROR2 expressed on the cell surface; experiment: flow cytometry, JN DSRCT cells (DSRCT); design: unit not given here
# Description: as §1
# [10] = target: T1, human ROR2 expressed on the cell surface; experiment: flow cytometry, SKES-1 cells (EW/PNET); design: unit not given here
# Description: as §1
# [11] = target: T1, human ROR2 expressed on the cell surface; experiment: flow cytometry, AU565 cells (breast CA); design: unit not given here
# Description: as §1
# [12] = target: T1, human ROR2 expressed on the cell surface; experiment: flow cytometry, HTB37-Caco2 cells (CRC); design: unit not given here
# Description: as §1
# [13] = target: T1, human ROR2 expressed on the cell surface; experiment: flow cytometry, SKBR3 cells (breast CA); design: reference not given here
# Description: as §1
# [14] = target: T1, human ROR2 expressed on the cell surface; experiment: flow cytometry, HTB132 cells (breast CA); design: unit not given here
# Description: as §1
# [15] = target: T1, human ROR2 expressed on the cell surface; experiment: flow cytometry, SKMEL-5 cells (melanoma); design: unit not given here
# Description: as §1
# [16] = target: T1, human ROR2 expressed on the cell surface; experiment: flow cytometry, OVCAR3 cells (ovarian CA); design: unit not given here
# Description: as §1
# [17] = target: T1, human ROR2 expressed on the cell surface; experiment: flow cytometry, U2OS cells (osteosarcoma); design: unit not given here
# Description: as §1
# [18] = target: T1, human ROR2 expressed on the cell surface; experiment: flow cytometry, RG187 cells (osteosarcoma); design: unit not given here
# Description: as §1
# [19] = target: T1, human ROR2 expressed on the cell surface; experiment: flow cytometry, NMB7 cells (neuroblastoma); design: unit not given here
# Description: as §1
# [20] = target: T1, human ROR2 expressed on the cell surface; experiment: flow cytometry, IMR32 cells (neuroblastoma); design: unit not given here
# Description: as §1
# [21] = target: T1, human ROR2 expressed on the cell surface; experiment: flow cytometry, LAN-1 cells (neuroblastoma); design: unit not given here
# Description: as §1
# [22] = target: T1, human ROR2 expressed on the cell surface; experiment: flow cytometry, SKNJB cells (neuroblastoma); design: unit not given here
# Description: as §1
# [23] = target: T1, human ROR2 expressed on the cell surface; experiment: flow cytometry, SKNMM cells (neuroblastoma); design: unit not given here
# Description: as §1
# [24] = target: T1, human ROR2 expressed on the cell surface; experiment: flow cytometry, BE(2)S cells (neuroblastoma); design: unit not given here
# Description: as §1
# [25] = target: T1, human ROR2 expressed on the cell surface; experiment: flow cytometry, NCI-H2052 cells (mesothelioma); design: reference not given here
# Description: as §1
# [26] = target: T1, human ROR2 expressed on the cell surface; experiment: flow cytometry, HTB26 (MDA-MB-231) cells (breast CA); design: unit not given here
# Description: as §1
# [27] = target: T2, human ROR2 extracellular domain (ROR2 ECD recombinant protein) (human, UniProt Q01974 34-403); experiment: kinetic binding analysis, full length IgG1 on human ROR2-ECD
# T2 construct: also called human ROR2-ECD; hROR2-ECD
# T2 sequence (Q01974 34-403): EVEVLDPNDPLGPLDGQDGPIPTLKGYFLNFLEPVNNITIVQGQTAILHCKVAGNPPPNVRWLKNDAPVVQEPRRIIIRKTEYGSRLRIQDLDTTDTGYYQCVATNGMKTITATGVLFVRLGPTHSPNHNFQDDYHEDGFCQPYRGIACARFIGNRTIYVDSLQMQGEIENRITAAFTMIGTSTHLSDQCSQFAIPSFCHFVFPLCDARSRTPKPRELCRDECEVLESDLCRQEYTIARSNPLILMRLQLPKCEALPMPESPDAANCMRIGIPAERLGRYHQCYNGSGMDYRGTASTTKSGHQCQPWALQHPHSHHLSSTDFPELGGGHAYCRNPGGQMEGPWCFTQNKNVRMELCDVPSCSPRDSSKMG
# T1 sequence (Q01974 34-943 limits assumed): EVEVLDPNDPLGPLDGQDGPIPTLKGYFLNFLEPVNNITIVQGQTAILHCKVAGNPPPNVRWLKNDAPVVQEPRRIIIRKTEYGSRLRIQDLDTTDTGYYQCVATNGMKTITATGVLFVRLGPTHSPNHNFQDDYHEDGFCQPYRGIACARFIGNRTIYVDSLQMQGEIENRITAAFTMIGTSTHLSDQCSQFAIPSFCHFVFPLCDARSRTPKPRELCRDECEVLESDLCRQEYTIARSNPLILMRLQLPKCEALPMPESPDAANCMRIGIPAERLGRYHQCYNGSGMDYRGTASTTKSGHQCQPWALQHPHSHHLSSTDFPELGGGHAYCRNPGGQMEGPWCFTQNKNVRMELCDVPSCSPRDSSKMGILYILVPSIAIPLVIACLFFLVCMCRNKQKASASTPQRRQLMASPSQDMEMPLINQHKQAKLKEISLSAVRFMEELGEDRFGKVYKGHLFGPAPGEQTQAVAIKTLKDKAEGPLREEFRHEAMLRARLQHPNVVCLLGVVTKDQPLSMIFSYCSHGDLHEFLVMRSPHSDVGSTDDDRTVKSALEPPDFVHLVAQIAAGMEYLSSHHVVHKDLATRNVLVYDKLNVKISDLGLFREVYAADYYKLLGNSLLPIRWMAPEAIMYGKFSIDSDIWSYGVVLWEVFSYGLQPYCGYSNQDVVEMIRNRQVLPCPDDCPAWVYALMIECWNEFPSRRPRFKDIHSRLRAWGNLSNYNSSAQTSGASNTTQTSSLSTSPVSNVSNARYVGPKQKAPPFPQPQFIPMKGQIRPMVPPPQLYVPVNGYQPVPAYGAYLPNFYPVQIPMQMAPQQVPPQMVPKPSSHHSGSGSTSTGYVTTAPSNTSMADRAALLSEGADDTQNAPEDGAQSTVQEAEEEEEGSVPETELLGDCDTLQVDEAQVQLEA
binding intensity [1],binding intensity [2],binding intensity [3],binding intensity [4],binding intensity [5],binding intensity [6],binding intensity [7],binding intensity [8],binding intensity [9],binding intensity [10],binding intensity [11],binding intensity [12],binding intensity [13],binding intensity [14],binding intensity [15],binding intensity [16],binding intensity [17],binding intensity [18],binding intensity [19],binding intensity [20],Binder,further results
48,49,74,44,68,18,115,57,84,28,211,91,98,5,8,48,94,79,47,51,"ROR2-90 full length human IgG1 antibody (antibody, V domains shown, also called clone #90; antibody #90) VH: EVQLVESGPGLVKPSQTLSLTCTVSGGSISSGGYYWSWIRQHPGKGLEWIGYIYYSGSTYYNPSLKSRVTISVDTSKNQFSLKLSSVTAADTAMYYCARGGLYWTYSQDVWGQGTLVTVSS VL: QPVLTQPPSASGTPGQRVTISCSGSSSNIGSDYVSWYQQLPGTAPKLLIYRNDQRPSGVPDRFSGSKSGTSASLAISGLRSEDEADYYCVAWDDSLSGYVFGSGTKVTVLG",binding intensity [21]: 48; binding intensity [22]: 254; binding intensity [23]: 117; binding intensity [24]: 40; binding intensity [25]: 101; binding intensity [26]: 19; Kd [27]: 0.163 nM; koff [27]: 0.000167 s⁻¹; kon [27]: 1.02e+06 M⁻¹ s⁻¹
26,11,23,7,21,6,27,18,5,12,8,13,15,8,2,7,29,19,23,16,"ROR2-27 full length human IgG1 antibody (antibody, V domains shown, also called clone #27; clone #027 IgG1) VH: QVQLVESGAEVKKPGESLKISCKASGYSFSNYWIGWVRQMPGKGLEWMGIIYPDDSDTRYSPSFQGQVTISADKSISTAYLQWYSLKVADTAKYYCVRPRGAFDIWGQGTTVTVSS VL: QSVLTQPPSVSGAPGQRVTISCTGSSSNIGAGHAVHWYQQLPGTAPKLLIYDNANRPSGVPDRFSGSQSGTSASLAITGLQTGDEADYYCGTWDDSPSAYVFGTGTKVTVLG",binding intensity [21]: 28; binding intensity [22]: 141; binding intensity [23]: 69; binding intensity [24]: 21; binding intensity [25]: 46; binding intensity [26]: 7; Kd [27]: 0.715 nM; koff [27]: 0.000608 s⁻¹; kon [27]: 851000 M⁻¹ s⁻¹
